Laboratory results from article PMC9006895.

Tests used:
[1] = biological target: flotillin 2-MBP (Laodelphax striatellus); assay: MST; Monolith NT.115; flotillin 2-MBP labeled with NHS-495 held at 10 μM, NP-GST diluted from 17.5 μM to 0.0417 nM; 25°C
[2] = biological target: flotillin 2-MBP (Laodelphax striatellus); assay: BLI; Octet RED96e; biotinylated flotillin 2-MBP (5 μM) loaded on streptavidin biosensors; NP-GST 0 to 4,000 nM in 1× PBS; 25°C; buffer 20 mM NaH2PO4, 150 mM NaCl, 0.05% Tween 20

## NP-GST (natural protein)
[1]
  Kd: 791 nM
[2]
  Kd: 619 nM
  koff: 0.00382 s⁻¹
  kon: 6170 M⁻¹ s⁻¹
